# Experimental data: the supplement of paper PMC9112550, “Optimization of the antimicrobial peptide Bac7 by deep mutational scanning” (BMC Biology, 2022)
# System: Escherichia coli TOP10
# Assay: shrunken log2 fold change of peptide-encoding DNA abundance (4.5 h post-induction vs induction); higher = less antimicrobial activity (less host growth inhibition)
# Conditions: time post-induction: 4.5 h; library: site-saturation at positions 5, 18, 19, 20
# 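Further: peptides expressed intracellularly from a pBAD plasmid library in pooled LB shake-flask culture, induced with 0.3% L-arabinose, DNA abundance read by NGS, three biological replicates, DESeq2 with apeglm shrinkage.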
row,Sequence,shrunken log2 fold change
1,RRIRQRPPRLPRPRPRPPRFPRP,1.51
2,RRIRQRPPRLPRPRPRPPRGPRP,2.1
3,RRIRQRPPRLPRPRPRPPRVPRP,0.422
4,RRIRQRPPRLPRPRPRPPTFPRP,0.0128
5,RRIRQRPPRLPRPRPRPPTIPRP,2.14
6,RRIRQRPPRLPRPRPRPPWTPRP,0.0238
7,RRIRQRPPRLPRPRPRPPYYPRP,-0.829
8,RRIRQRPPRLPRPRPRPQAAPRP,0.0499
9,RRIRQRPPRLPRPRPRPQAPPRP,0.233
10,RRIRQRPPRLPRPRPRPQDFPRP,-0.372
11,RRIRQRPPRLPRPRPRPQDWPRP,-0.146
12,RRIRQRPPRLPRPRPRPQFVPRP,-0.173
13,RRIRQRPPRLPRPRPRPQIAPRP,-0.133
14,RRIRQRPPRLPRPRPRPQIQPRP,-0.411
15,RRIRQRPPRLPRPRPRPQLIPRP,-0.237
16,RRIRQRPPRLPRPRPRPQMRPRP,-0.0736
17,RRIRQRPPRLPRPRPRPQPQPRP,0.0436
18,RRIRQRPPRLPRPRPRPQPWPRP,0.141
19,RRIRQRPPRLPRPRPRPQQAPRP,-0.0512
20,RRIRQRPPRLPRPRPRPQQCPRP,-0.132

row,Sequence,shrunken log2 fold change
1,RRIRQRPPRLPRPRPRPQQNPRP,-0.0678
2,RRIRQRPPRLPRPRPRPQSEPRP,-0.173
3,RRIRQRPPRLPRPRPRPQSPPRP,-0.0301
4,RRIRQRPPRLPRPRPRPQSTPRP,-0.631
5,RRIRQRPPRLPRPRPRPQTGPRP,-0.137
6,RRIRQRPPRLPRPRPRPQTQPRP,0.025
7,RRIRQRPPRLPRPRPRPQVPPRP,-0.148
8,RRIRQRPPRLPRPRPRPQWMPRP,-0.494
9,RRIRQRPPRLPRPRPRPQYCPRP,0.0332
10,RRIRQRPPRLPRPRPRPQYEPRP,-0.349
11,RRIRQRPPRLPRPRPRPRAAPRP,0.506
12,RRIRQRPPRLPRPRPRPRAKPRP,0.0777
13,RRIRQRPPRLPRPRPRPRAPPRP,0.749
14,RRIRQRPPRLPRPRPRPRASPRP,0.392
15,RRIRQRPPRLPRPRPRPRAVPRP,2.78
16,RRIRQRPPRLPRPRPRPRCPPRP,0.313
17,RRIRQRPPRLPRPRPRPRCSPRP,-0.232
18,RRIRQRPPRLPRPRPRPREAPRP,0.384
19,RRIRQRPPRLPRPRPRPRERPRP,0.553
20,RRIRQRPPRLPRPRPRPRFMPRP,0.137

row,Sequence,shrunken log2 fold change
1,RRIRQRPPRLPRPRPRPRGCPRP,0.199
2,RRIRQRPPRLPRPRPRPRGHPRP,0.342
3,RRIRQRPPRLPRPRPRPRHDPRP,0.0818
4,RRIRQRPPRLPRPRPRPRHFPRP,0.0257
5,RRIRQRPPRLPRPRPRPRICPRP,-0.083
6,RRIRQRPPRLPRPRPRPRIQPRP,-0.0402
7,RRIRQRPPRLPRPRPRPRKFPRP,0.214
8,RRIRQRPPRLPRPRPRPRKRPRP,-0.104
9,RRIRQRPPRLPRPRPRPRLFPRP,0.701
10,RRIRQRPPRLPRPRPRPRLMPRP,0.00478
11,RRIRQRPPRLPRPRPRPRLVPRP,0.211
12,RRIRQRPPRLPRPRPRPRLYPRP,0.0786
13,RRIRQRPPRLPRPRPRPRMGPRP,-0.0719
14,RRIRQRPPRLPRPRPRPRMHPRP,-0.0115
15,RRIRQRPPRLPRPRPRPRMQPRP,-0.0113
16,RRIRQRPPRLPRPRPRPRNRPRP,0.0911
17,RRIRQRPPRLPRPRPRPRPDPRP,0.191
18,RRIRQRPPRLPRPRPRPRQEPRP,0.0978
19,RRIRQRPPRLPRPRPRPRQLPRP,0.0166
20,RRIRQRPPRLPRPRPRPRQMPRP,0.297
